Experiment [1] concerns the target T1, GII.4 Houston 2002 (ABY27560.1) VLPs (UniProt P54635 1-539). The experiment in a line: ELISA binding.
Experiment [2] deals with Glutathione S-transferase (GST)-tagged GII.4 Sydney 2012 P domain dimers. The experiment in a line: ELISA.
The target of experiment [3] is T1, GII.4 Houston 2002 (ABY27560.1) VLPs. The experiment in a line: VLP blockade.
For experiment [4], the target named is T2, GII.4 Sydney 2012 shell (S) domain (UniProt P54635 1-221).
T2 chain: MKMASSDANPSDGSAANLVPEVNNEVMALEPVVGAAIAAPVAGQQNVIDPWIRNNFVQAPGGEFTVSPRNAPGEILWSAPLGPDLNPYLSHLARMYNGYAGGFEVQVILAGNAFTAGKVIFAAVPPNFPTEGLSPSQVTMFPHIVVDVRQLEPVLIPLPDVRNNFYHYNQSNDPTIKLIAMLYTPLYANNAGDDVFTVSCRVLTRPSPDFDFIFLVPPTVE
The experiment in a line: ELISA.

In a further experiment the target is GII.3 (norovirus GII.3). The experiment in a line: ELISA.
A further experiment has as its target GII.13 (norovirus GII.13). The experiment in a line: ELISA.
The target of a further experiment is GI.3 (norovirus GI.3). The experiment in a line: ELISA.
A further experiment has as its target GII.17 (norovirus GII.17). The experiment in a line: ELISA.

B1: NORO-263 (antibody, V domains shown)
VH: QVQLVESGGGLVKPGGSLRLSCAASGFTLSDYYMSWIRQAPGKGLEWVAYISSSHTSTYYRDSVKGRFTISRDSAKKSLYLQMNSLRVEDTAIYYCARDWVGGRSAYSDHWGQGTLVTVSS
VL: SYELTQPPSVSVSPGQTARITCSGDALPRRPAFWYQQKSGQAPVLVMYDDSKRPSGIPERFSGSSSGTVATLTISGAQVEDEADYHCYSTDSSGKERVFGGGTKLTVL
As for B1, the EC50 in experiment [1] stood at 0.5 µg/mL; in experiment [2], 0.9 µg/mL; in experiment [3], 2.1 µg/mL.

B2: NORO-273A (antibody, V domains shown)
VH: QVQLVQSGAEVKKPGASVKISCKASGYDFTSFPMHWVRLGPGQRLEWMGWISAANGNTKYSQKFQDRFTITRDTSASIVHMELSSLRSEDTAVYYCARGGYSSGLYRYSNYYYGMTVWGQGTLVTVSS
VL: DIVMTQTPLSLSVTPGQPASISCKSSESLLHNDRKTYLFWYLQKPGQPPQLLIFQVSNRFSGVPDRFSGSGSGTDFTLRISRVEAEDVGIYYCLQTTQLPLTFGGGTKVEIK
B2 had an EC50 in experiment [3] of 5.2 µg/mL.

B3: NORO-115 (antibody, V domains shown)
VH: QVQLVESGGGLVKPGGSLRLSCTASGITISGYYMSWIRQAPGKGLEWIVYINTSGRTIYYADSVKGRFSVSRDNAKESLYLQMDSLTVDDTGIYYCARDRLPASGSHWFHPWGQGTLVTVSS
VL: DIVMTQSPDSLAVSLGGRATINCKSSQSVLYTSDNKNYLAWYQQQPGQPPKLLISWASTRESGVPDRFSGSGSGTDFTLTISNLQAEDVAVYYCQQYYNSPLAFGGGTKVEIK
B3: the EC50 in experiment [1] turned out to be 1.1 µg/mL; in experiment [2], 0.1 µg/mL; in experiment [3], 2.3 µg/mL.

B4: NORO-250B (antibody, V domains shown)
VH: QVQLVESGGGLVKPGGSLTLSCAASGFTFSDYYMNWIRQAPGKRLEWVSYISGIMSSTNYADSVKGRFTISRDTAKKSVYLQMNSLRAEDTAVYYCARATSQGATSYYFDSWGQGTLVTVSS
VL: QSVLTQPPSVSGAPGQRVTISCTGSSSNIGADYDVHWYQQLPGAAPRLLIYADINRPSGVPDRFSGSKSGTSASLAITGLQAEDEADYYCQSYDRSVSGSAVFGGGTKVTVL
With B4, the figures for the EC50 in experiment [1], in experiment [2] and in experiment [3] were 0.1 µg/mL, 0.1 µg/mL and 17.9 µg/mL, respectively.

B5: NORO-317 (antibody, V domains shown)
VH: QVQLVESGGGLVKPGGSLRLSCVASGFTFSDYYISWVRQAPGKGLEWVSYISAINSYTNYADSVRGRFTVSRDNAKKSVFLQMNSLRVDDTAVYYCARDVGGSVRYSSNSNKKSYNYFDPWGQGTLVTVSS
VL: SYELTQPPSVSVSPGQTATITCSGDVLSKEFAYWYQQKPGQAPVLVIYKDNERPSGIPERFSGSTSGTTVTLTISGVLAEDEAHYYCQSVDTRGTYKVFGGGTKLTVL
For the molecule B5, the EC50 in experiment [2] worked out at 0.2 µg/mL.

B6: NORO-123 (antibody, V domains shown)
VH: QVQLVESGGGVVQPGRSLRLSCSTSGFTFSQYPMHWVRQAPGKGLEWVALISYDGMNKYYADSVRGRFTISRDNSENTQYLQMNSLRGDDTAVYYCARVTGDCTGNRCSYWAYYYYGLDVWGQGTLVTVSS
VL: QSALTQPPSASGSPGQSVTISCTGTSSDVGGYKYVSWYQQHPGKAPKLMIYEVTRRPSGVPDRFSGSKSGNTAFLTVSGLQAEDEADYYCGSYAGSTTSGYVFGTGTKVIVL
As to B6, the EC50 in experiment [1] amounted to 0.6 µg/mL; in experiment [2], 6.1 µg/mL; in experiment [3], 2.5 µg/mL.

B7: NORO-315B (antibody, V domains shown)
VH: QVQLVESGGGLVKPGGSLRLSCVASGFTFSDYYMTWFRQTPGRGLEWLSYISAIGGYTEYADSVKSRFIISRDNGKKSLYLQMNSLRAEDSGVYYCAREDCHGTSCYSGDWGQGTLVTVSS
VL: QSVLTQPPSVSGAPGQRVTISCTGSSSNIGAGYDVHWYQQLPGTAPKLLIYHNTNRPSGVPDRFSGSKSGTSAYLTITGLQAEDEADYYCQSYDRSLSKSRVFSGGTKLTVL
In the case of B7, the EC50 in experiment [1] stood at 0.5 µg/mL; in experiment [2] it was 0.3 µg/mL; in experiment [3], 2.2 µg/mL.

B8: NORO-278 (antibody, V domains shown)
VH: QVQLVESGGGVVQPGRSLRLSCAASGFTFSSYGMHWVRQAPGKGLEWVAVISYDGSNKYYADSVKGRFTISRDNSKNTLYLQMNSLRAEDTAVYYCAKVTIIAAADLLDYWGQGTLVTVSS
VL: QSVLTQPPSVSGAPGQRVTISCTGSSSNIGAGYDVHWYQQLPGTAPKLLIYGNSNRPSGVPDRFSGSKSGTSASLAITGLQAEDEADYYCQSYDSSLSGPVVFGGGTKLTVL
For B8, the EC50 in experiment [1] was 0.5 µg/mL; in experiment [2] it was 68.5 µg/mL; in experiment [3], > 100 µg/mL.

B9: NORO-329A (antibody, V domains shown)
VH: QVQLVESGGGLVKPGGSLRLSCAASGFTFSDYYMSWIRQAPGKGLEWISYISSSFGSTDYAGSMKGRFTISRDNAKNSLYLQMNSLRAEDTAVYYCARYNYYGSGSFVFDYWGQGTLVTVSS
VL: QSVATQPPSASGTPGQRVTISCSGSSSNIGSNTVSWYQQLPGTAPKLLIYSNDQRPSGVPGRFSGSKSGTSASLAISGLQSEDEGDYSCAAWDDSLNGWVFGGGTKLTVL
For the molecule B9, the EC50 in experiment [4] was determined as 35.8 µg/mL.

B10: NORO-296A (antibody, V domains shown)
VH: QVQLVESGGGLVKPGGSLRLSCAASGFTFSEYYMSWVRQAPGKALEWVSYITSSFSSTSYADSVKGRFVISRDNAKNSLYLQMNSLRVEDTAVYYCARYGAEYGSRSFYFLDWGQGTLVTVSS
VL: QSVLTQPPSVSGAPEQRVTISCTGSSSNIGAGYDVHWYQVLPGIAPKLLIYDNNKRPSGVPDRFSGSKSGTSASLAITGLQAEDEADYYCQSYDSRLSSNVVFGGGTKLTVL
Consider B10, for which the EC50 in experiment [1] is 0.1 µg/mL; in experiment [4], 12.5 µg/mL; in experiment [3], 3.2 µg/mL.

B11: NORO-256A (antibody, V domains shown)
VH: QVQLVESGGGVVQAGRSLRLSCAASGFTFRSYGMHWVRQAPGKGLEWVAIISYDGGSKYYADSVKGRFTISRDNSKNTLYLQMNSLRVEDTALYYCAKDFLRVYSYGWHSFDIWGLGTLVTVSS
VL: QSVLTQPPSVSAAPGQRVTISCSGSSSNIGTYYVSWYQHLPGTAPKLLIYDNDKRPSGIPDRFSASKSGTSATLDIAGLQTGDEADYYCGTWDLSLTAGWVFGGGTKLTVL
With B11, the EC50 is 0.4 µg/mL in experiment [1], 0.4 µg/mL in experiment [4] and > 100 µg/mL in experiment [3].

B12: 202A.1 (antibody, V domains shown)
VH: QVQLVQSGAEVKKPGASVKVSCKASEYTFTGYYLQWVRQAPGHGLEWMGWINPSGGTKYSQKFQGRVTMTRDTSITTVYMELSRLRSDDTAVYYCARDLLRNWGDHDAFDVWGQGTMVTVSS
VL: QSVLTQPPSASETPGQGVTISCSGSSSNIGSNFVCWYQQVPGTAPKLLIYKNNQRPSGVPDRFSGSKSGTSASLAISGLRSEDEADYYCSAWDDSLSGPVFGGGTKLTVL
As to B12, the EC50 turned out to be 41 nM in the experiment with GII.3 and 4 nM with GII.13.

B13: NORO-251A (antibody, V domains shown)
VH: QVQLVESGGGVVQPGRSLRLSCAASGFTFRSYGIHWVRQAPGKGLEWVALISYDGSSKYYADSVKGRFTISRDNSKNTLYLQMNSLRSEDTAVYYCAKVRLTSYSIGWFSFDYWGQGTLVTVSS
VL: QSVLTQPPSVSAAPGQKVTISCSGSSSNIANYYVSWYQQLPGRAPKLLIYDNNKRPSGIPDRISGSKSGTSATLGITGLQTGDEADYYCGTWDTSLSAWVFGGGTKLTVL
With B13, the EC50 is 0.3 µg/mL in experiment [1], 4.1 µg/mL in experiment [4] and > 100 µg/mL in experiment [3].

B14: NORO-303 (antibody, V domains shown)
VH: QVQLVESGGGVVQPGRSLRLSCAASGFIFSSYAMHWVRQAPGKGLEWVAVMSYDGNNKYYADSVKGRFTISRDNSKNTLFLQMNSLRPEDTAVYYCARDCRVGWVFTYGMDVWGQGTLVTVSS
VL: QSALTQPPSASGSPGQSVTISCTGTSSDVGGYNYVSWYQQHPGKAPKLMMYEISKRPSGVPIRFSGSKSGNTASLTVSGLQAEDEADYYCSSYAGTYNCVVFGGGTKLTVL
B14: the EC50 in experiment [2] was 6.8 µg/mL; in experiment [3], > 100 µg/mL.

B15: NORO-313.1 (antibody, V domains shown)
VH: QVQLVESGGGLVKPGGSLRLSCAASGFTFSDFYMSWIRQAPGKGLEWVGYISSIAGATNYADSVKGRFTISRDSSKRSLYLQMNSLRVEDTAVYYCARMGRLELERRPHYYYPLDVWGQGTLVTVSS
VL: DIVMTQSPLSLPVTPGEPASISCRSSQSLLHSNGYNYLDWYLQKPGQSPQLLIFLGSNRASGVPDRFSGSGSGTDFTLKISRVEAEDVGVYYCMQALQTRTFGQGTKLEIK
Turning to B15, the EC50 in experiment [1] worked out at 0.1 µg/mL; in experiment [2], 0.8 µg/mL; in experiment [3], 2.1 µg/mL.

B16: 279A (antibody, V domains shown)
VH: QVQLVESGGGVVQPGRSLRLSCAASGFTFTKYGMHWVRQAPGKGLEWVAFIAYDGSVKYYGDSAKGRFAISRDNPKNTVYLQMNSLRAEDTAVYYCAKVEIHYYSNSLLGMDVWGQGTLVTVSS
VL: QSVLTQPPSASGTPGQRVTISCSGGNSNIGISYVYWYQHLPGTAPKLLISKNNLRPSGVPDRFSASKSGTSASLAISGLRSEDEAEYYCATLDINMTWVFGGGTKLTVL
As for B16, the EC50 stood at 14 nM in the experiment with GII.3, 70 nM in the experiment with GI.3, 10 nM with GII.13 and 18 nM with GII.17.

B17: NORO-312A (antibody, V domains shown)
VH: QVQLVESGGALVKPGESLRLSCAASGFTFSDSYMSWIRQAPGKGLEWVAYISGIMSSTNYADSVKGRFTISRDNGKNSVYLQMNNLRAEDTAVYYCARDAQYCSGGRCYLVFDYWGQGTLVTVSS
VL: QSVLTQPPSVSGAPGQRVTISCTGSSSNIGAGYEVHWYQQLPGAAPKLIIYGNNNRPSGVPDRFSGSKSGTSASLAITGLQADDEADYYCQSYDNRLRVFGGGTKLTVL
In experiment [4], B17 returned an EC50 of 9.9 µg/mL.

The values above are taken from US20210324050A1 (published 2021).
